Laboratory results as given in the supplement of paper PMC11136658.

System: peptide library, one residue held at a place counted from the Y acceptor
Assay: relative phosphorylation of the sub-library (ratio to the mean residue at this position); higher = residue favoured
Outline: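 Every value reflects phosphorylation relative to the mean randomized residue. The sum of the 18 randomized residues, or 16 in the Ser/Thr-free library, served to normalize intensities at each position, which were then multiplied by that number. Intensities came from phosphorimaging with ImageQuant of biotinylated Tyr-centred peptides captured on streptavidin membranes after 90 min with purified recombinant kinases and 50 μM ATP plus γ-32P-ATP.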

Sequence of FES, construct: Full length, human (P07332 whole entry, looked up): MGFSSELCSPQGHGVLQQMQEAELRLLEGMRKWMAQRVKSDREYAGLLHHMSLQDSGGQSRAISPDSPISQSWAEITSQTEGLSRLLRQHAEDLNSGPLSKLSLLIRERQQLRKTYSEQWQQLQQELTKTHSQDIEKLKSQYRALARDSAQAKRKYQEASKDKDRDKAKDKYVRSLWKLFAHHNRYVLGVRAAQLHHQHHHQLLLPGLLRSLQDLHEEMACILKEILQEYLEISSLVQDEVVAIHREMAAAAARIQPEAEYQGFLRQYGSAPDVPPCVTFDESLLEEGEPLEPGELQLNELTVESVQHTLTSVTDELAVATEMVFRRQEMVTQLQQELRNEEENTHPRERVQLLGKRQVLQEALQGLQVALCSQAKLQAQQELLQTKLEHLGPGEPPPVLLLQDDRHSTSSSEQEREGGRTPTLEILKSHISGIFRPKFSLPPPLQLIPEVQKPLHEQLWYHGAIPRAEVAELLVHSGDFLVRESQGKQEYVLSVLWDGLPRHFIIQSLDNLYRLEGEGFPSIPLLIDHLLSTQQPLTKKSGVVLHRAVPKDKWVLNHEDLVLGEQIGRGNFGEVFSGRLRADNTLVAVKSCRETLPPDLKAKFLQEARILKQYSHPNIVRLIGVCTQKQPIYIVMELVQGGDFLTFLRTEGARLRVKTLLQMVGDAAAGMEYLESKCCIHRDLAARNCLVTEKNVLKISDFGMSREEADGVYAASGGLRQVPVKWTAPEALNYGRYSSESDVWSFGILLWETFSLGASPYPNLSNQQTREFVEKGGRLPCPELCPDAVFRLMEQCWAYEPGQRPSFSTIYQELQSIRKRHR

FES, construct: Full length, human (from UniProt P07332)
relative phosphorylation
Settings	at +1	at +2	at +3	at +4	at +5	at -1	at -2	at -3	at -4	at -5
A fixed	1.45	0.535	0.428	0.817	1.18	0.518	1.05	0.86	1.26	1
D fixed	0.789	0.715	0.235	0.622	0.47	0.77	1.01	1.52	1.16	0.941
E fixed	2.65	0.794	0.289	1	0.374	0.567	1.27	1.89	1.27	0.9
F fixed	0.872	1.58	1.32	1.07	1.71	1.3	0.851	1.44	1.13	1.14
G fixed	0.754	0.372	0.35	1.01	0.809	0.274	1.26	0.985	1.4	1.09
H fixed	0.471	0.425	0.752	0.957	1.24	0.718	0.917	0.826	0.74	0.979
I fixed	1.07	1.3	3.25	1.25	1.23	4.02	1.02	0.823	1.1	1.07
K fixed	0.208	0.294	0.21	0.592	0.394	0.273	0.62	0.44	0.615	0.766
L fixed	0.854	1.56	1.45	0.795	1.35	2.41	1.24	0.866	1.1	1.09
M fixed	1.82	1.36	2.19	1.68	1.52	1.05	0.917	1.18	1.19	1.24
N fixed	0.332	0.848	0.273	0.57	0.593	0.618	0.982	1.02	0.762	1.14
P fixed	0.332	0.643	0.361	0.845	1.44	0.599	1.21	0.917	1.01	0.883
Q fixed	0.95	0.552	0.373	0.858	0.669	0.412	1.1	0.702	1.13	1.18
R fixed	0.219	0.379	0.252	0.946	0.536	0.228	0.657	0.536	0.62	0.854
S fixed	1.29	0.819	0.482	0.923	0.78	0.432	0.953	0.924	0.733	0.777
T fixed	1.09	0.867	0.646	0.831	1.03	0.784	0.916	0.806	0.664	0.821
V fixed	1.88	1.26	2.52	1.1	1.27	2.19	1.08	0.942	0.984	1.05
W fixed	0.981	3.69	2.61	2.14	1.4	0.835	0.948	1.32	1.12	1.08
pThr fixed	3.64	1.35	0.346	0.649	0.307	1.53	1.21	1.65	0.946	0.879
pTyr fixed	3.48	1.27	0.712	1.14	0.357	9.09	2.21	2.25	1.83	1.55
